Results published in patent publication US11998620B2, “PSMA targeted compounds and uses thereof” (CASE WESTERN RESERVE UNIVERSITY, priority 2021, dated 2024).
Numbered stars: 1 amine (or outer) side, 2 acyl side, 3 side chain; on linkers, the order of the positions; unused ones are H or OH. Square brackets hold non-standard residues; d marks the D form. Peptide text beside a SMILES is read from it. * marks the point of attachment. DOTA = O=C(O)CN1CCN(CC(=O)O)CCN(CC(=O)*)CCN(CC(=O)O)CC1; γGlu = O=C(O)[CH](CCC(=O)[*:2])N[*:1]; X3 = O=C(C1CCC(CN[*:1])CC1)[*:2]; CO = O=C([*:1])[*:2]; Ahx = NCCCCCC(=O)O

Experiments:
[1] = tested on: PSMA-expressing cancer tissue; test: Standard uptake values (SUVs) by PET and blood clearance, general statements; type: in vivo; details: PET
Description: The term “standardized uptake value (SUV)” refers to a measure of radioactivity in a specific area of interest relative to an idealized even distribution of radioactive material throughout the body. SUV is used historically by nuclear medicine professionals to distinguish between “normal” and “abnormal” levels of uptake. Preferably, uptake is measured by positron emission tomography (PET) imaging or other imaging modalities.
The PSMA targeted compounds described herein include a PSMA ligand, e.g., PSMA-1, conjugated to a metal chelating agent or chelated metal nuclide. The PSMA targeted compounds described herein can selectively recognize PSMA-expressing tumors, cancer cells, and/or cancer neovasculature in vivo and be used to deliver at least one chelated metal nuclide, such as radionuclide, to the PSMA-expressing tumors, cancer cells, and/or cancer neovasculature to treat and/or detect the PSMA-expressing tumors, cancer cells, and/or cancer neovasculature in a subject. The PSMA ligand can target and/or increase the uptake of the metal chelating agent or chelated metal nuclide in PSMA expressing cancer cells compared to untargeted metal chelated agents or chelated metal nuclides administered to a subject and decrease non-PSMA target toxicity of the metal nuclide administered (e.g., systemically) to a subject.

[2] = In vivo PET imaging in healthy animals without tumor; set-up: species or system mice
Description: We compared the [^68Ga]-PSMA-11 and the [^68Ga]-PSMA-1-DOTA ligand in healthy animals without tumor. Equal doses of radioactivity were injected into the same animal (a single animal was used to limit variability). We injected the [^68Ga]-PSMA-1-DOTA first to prevent blockade of its binding by the other ligand, waited 24 hours and then injected the other radiolabeled ligand.

[3] = tested on: PC3pip tumors that overexpress PSMA; test: In vivo PET imaging in animals harboring PC3pip tumors
From the text: We also made a similar comparison using animals harboring PC3pip tumors that overexpress PSMA.

[4] = molecular target: T1, PSMA (Homo sapiens, UniProt Q04609); test: Competition binding assay using [3H]-ZJ24 with PC3pip cells; details: approximately, compared to PSMA-11, PSMA I&T and ZJ24 ligands, FIG. 3
T1 construct: expressed in transfected cells; host or cells: PC3pip cells
From the text: We first conjugated a macrocyclic DOTA to our PSMA-1 ligand enabling us to label it with [^68Ga]. We then compared the macrocyclic-conjugated PSMA-1 ligand to PSMA-11 ligand, PSMA I&T ligand, and ZJ24 ligand in a competitive radio-binding assay using [^3H]-ZJ24 with PC3pip cells. FIG. 3 illustrates that the PSMA-1 ligand conjugated to DOTA, the PSMA-1 ligand has approximately 4-5 fold higher affinity for PSMA.

[5] = Storage stability (lyophilized powder; frozen in saline); type: physicochemical
Description: (§1) PSMA-1-DOTA was incubated in 100% mouse Plasma, PBS, or 100% human plasma at 37° C. […] And stability has been monitored and confirmed for at least 7 days frozen in isotonic sterile saline.

[6] = Stability assay: incubation in plasma or PBS, HPLC; type: in vitro ADME; details: 100% mouse plasma, PBS or 100% human plasma at 37° C., for 7 days
Description: as §1

[7] = PC3pip tumor bearing animals, PET

T1 sequence (Q04609 whole entry): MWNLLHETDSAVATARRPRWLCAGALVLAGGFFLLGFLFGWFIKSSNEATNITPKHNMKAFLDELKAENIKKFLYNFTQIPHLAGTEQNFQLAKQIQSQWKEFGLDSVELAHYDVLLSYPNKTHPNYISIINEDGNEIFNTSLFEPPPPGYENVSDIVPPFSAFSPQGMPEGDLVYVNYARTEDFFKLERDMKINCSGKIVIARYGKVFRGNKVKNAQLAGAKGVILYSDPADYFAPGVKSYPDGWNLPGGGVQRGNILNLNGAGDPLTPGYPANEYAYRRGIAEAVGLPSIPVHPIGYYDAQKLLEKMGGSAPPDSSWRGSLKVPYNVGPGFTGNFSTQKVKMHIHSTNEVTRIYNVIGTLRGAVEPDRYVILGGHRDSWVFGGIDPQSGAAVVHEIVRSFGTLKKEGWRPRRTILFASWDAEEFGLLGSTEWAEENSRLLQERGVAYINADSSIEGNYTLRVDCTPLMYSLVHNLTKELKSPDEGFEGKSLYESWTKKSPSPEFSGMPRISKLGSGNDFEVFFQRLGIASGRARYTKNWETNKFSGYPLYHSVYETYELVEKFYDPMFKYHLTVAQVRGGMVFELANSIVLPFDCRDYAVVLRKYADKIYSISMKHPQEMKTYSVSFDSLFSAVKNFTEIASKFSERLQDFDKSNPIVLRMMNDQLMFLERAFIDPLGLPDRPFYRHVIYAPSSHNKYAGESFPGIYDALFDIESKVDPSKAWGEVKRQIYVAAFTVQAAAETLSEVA

NC(=O)C(CCCCNC(=O)CN1CCN(CC(=O)O)CCN(CC(=O)O)CCN(CC(=O)O)CC1)NC(=O)C(Cc1ccc(O)cc1)NC(=O)C(CCC(=O)O)NC(=O)C(CCC(=O)O)NC(=O)C(CCC(=O)O)NC(=O)CCCCCNC(=O)CCC(NC(=O)NC(CCC(=O)O)C(=O)O)C(=O)O (stereo not shown) [JB-1498] ({Glu-CO-γGlu-Ahx}-EEEYK(DOTA)-NH2; configuration not given here)
SUVs in salivary glands, lacrimal glands and non-PSMA expressing muscle tissue versus SUVs in PSMA-expressing cancer [1]: substantially lower SUVs

NC(=O)[C@H](CCCCNC(=O)CN1CCN(CC(=O)O)CCN(CC(=O)O)CCN(CC(=O)O)CC1)NC(=O)[C@@H](CCC(=O)O)NC(=O)[C@@H](CCC(=O)O)NC(=O)[C@@H](CCC(=O)O)NC(=O)CCCCCNC(=O)C1CCC(CNC(=O)CC[C@H](NC(=O)N[C@@H](CCC(=O)O)C(=O)O)C(=O)O)CC1 (stereo partly shown) [[^68Ga]-PSMA-1-DOTA, metal not drawn] ({Glu-CO-γGlu}-[X3][Ahx][dE][dE][dE]K(DOTA)-NH2)
uptake in the salivary glands ([2]; mouse, in vivo): none | kidney uptake ([3]; mouse, in vivo): less kidney uptake | uptake into salivary glands ([3]; mouse, in vivo): no uptake

NC(=O)C(CCCCNC(=O)CN1CCN(CC(=O)O)CCN(CC(=O)O)CCN(CC(=O)O)CC1)NC(=O)C(CCC(=O)O)NC(=O)C(CCC(=O)O)NC(=O)C(CCC(=O)O)NC(=O)CCCCCNC(=O)C1CCC(CNC(=O)CCC(NC(=O)NC(CCC(=O)O)C(=O)O)C(=O)O)CC1 (stereo not shown) [PSMA-1-DOTA] ({Glu-CO-γGlu}-[X3][Ahx]EEEK(DOTA)-NH2; configuration not given here)
renal clearance ([2]; mouse, in vivo): faster renal clearance | renal retention of the probe ([2]; mouse, in vivo): less renal retention | higher affinity for PSMA [4]: 4-5 fold | stability frozen in isotonic sterile saline ([5]; frozen): at least 7 days | stability as a lyophilized powder ([5]; long term storage): stability for long term storage | SUVs in salivary glands, lacrimal glands and non-PSMA expressing muscle tissue versus SUVs in PSMA-expressing cancer [1]: substantially lower SUVs | degradation/purity by HPLC [6]: No decline in the product

O=C([O-])CN(CCN(CC(=O)[O-])Cc1cc(CCC(=O)NCCCCCC(=O)NCCCC[C@H](NC(=O)N[C@@H](CCC(=O)O)C(=O)O)C(=O)O)ccc1[O-])Cc1cc(CCC(=O)O)ccc1[O-].[68Ga+3].[OH3+] [[^68Ga]-PSMA-11]
uptake in the salivary glands ([2]; healthy animals without tumor, equal doses of radioactivity, PET): significant uptake | kidney uptake [3, 7]: significant uptake | uptake in the PC3pip tumor [3, 7]: significant uptake | uptake into lacrimal glands [3, 7]: significant uptake | uptake into salivary glands [3, 7]: significant uptake
